Data from patent US20210107981A1 (SUTRO BIOPHARMA, published 2021).

B1: 4B10 murine hybridoma IgG (antibody, V domains shown)
VH: EVKLVESGGGLVKPGGSLKLSCAASGFTFSTYGMSWVRQTPEKRLQWVATISGGGSNTYYSDSVKGRFTISRDNAKNNLYLQMSSLRSEDTALYYCARQRDSAWFASWGQGTLVTVSA
VL: not shown
notes: Mouse IgG from hybridoma; also called m4B10
B2: 10B4 murine hybridoma IgG (antibody, V domains shown)
VH: QVQLQQSGAELMKPGASVKMSCKTTGYIFSSYWIGWVKQRPGHGLEWIGKIFPGSGSADYNENFKGKATFTVDTSSNTAYMQLSSLTSEDSAVYYCARGYGNYLYFDVWGAGTTVTVSS
VL: NIVMTQTPKFLLVSAGDRITITCKASQSVSDDVAWYQQKPGQSPKLLISYAFKRYIGVPDRFTGSGYGTDFTFTISTVQAEDLAVYFCQQNYNSPYTFGGGTKLELKR
notes: Mouse IgG from hybridoma; also called m10B4
B3: 1E9 murine hybridoma IgG (antibody, V domains shown)
VH: EVKLVESGGGLVSPGGSLKLSCAASGFTFSTFGMSWVRQTPEKRLEWVATISGGGSDTYYPDSVQGRFIISRYNAKNNLYLQMNSLRPEDTALYYCARQGYDVYSWFAYWGQGTLVTVSA
VL: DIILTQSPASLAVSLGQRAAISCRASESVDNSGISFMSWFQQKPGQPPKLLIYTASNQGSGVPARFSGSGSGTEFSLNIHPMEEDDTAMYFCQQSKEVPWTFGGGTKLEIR
notes: Mouse IgG from hybridoma; also called m1E9
B4: 1B10 murine hybridoma IgG (antibody, V domains shown)
VH: DVQLQESGPGLVKPSQSLSLTCTVTGHSITSDYAWNWIRQFPGNKLEWMGYISYSGRTSYNPSLTSRISITRDTSKNQFFLQLNSVTTEDTATYYCARGYALDYWGQGTSVTVSS
VL: QIVLSQSPAILSASPGEKVTMTCRTSSSVNYMHWFQQKPGSSPKPWIYATSKLASGVPARFSGSGSGTSYSLTISRVEAEDAATYFCQQWISDPWTFGGGTKLEIK
notes: Mouse IgG from hybridoma; also called m1B10

How the values were obtained:
[1] = target: T1, Human PD-1 (ACROBiosystems, Inc., Catalog No. PD1-H5221) (human, UniProt Q15116 25-167); test: competition ELISA on coated PD-1; competitor PD-L1-Fc (ACROBiosystems)
T1 construct: Bought recombinant protein; also called huPD1-His; PD-1-his; not shown: His tag of the bought protein (huPD1-His)
T1 sequence (Q15116 25-167 limits assumed): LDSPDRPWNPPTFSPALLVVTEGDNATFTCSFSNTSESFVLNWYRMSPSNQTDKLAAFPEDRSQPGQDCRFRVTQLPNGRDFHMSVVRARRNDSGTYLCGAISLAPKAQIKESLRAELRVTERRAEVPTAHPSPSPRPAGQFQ
Experimental: PD-1 (ACROBiosystems, Inc.) was adsorbed on 384-well white Maxisorp® plates (Nunc) at 2 μg/mL in sodium bicarbonate buffer (pH 8.9) and incubated at 30° C. for 1 hour or overnight at 4° C. The plate was washed 3 times with PBS pH 7.4 with 0.05% Tween20 and blocked with 2% bovine serum albumin (BSA) in PBS pH 7.4+0.1% Tween20 for 1 hour at 30° C.
After a 1 hour incubation at 30° C., the plate was washed and incubated with HRP-conjugated anti-mouse Fc (Jackson Laboratories), followed by detection with SuperSignal™ Pico Chemiluminescent Substrate (Thermo Pierce). Luminescence was detected on a SpectraMax® M5 plate reader (Molecular Devices).

[2] = target: T2, human PD-1 expressed on the cell surface (CHO-PD1 cells) (human, UniProt Q15116 25-288); test: cell-based FACS competition on CHO-PD1 cells; competitor rhPDL1-Fc
T2 construct: Also used here as the target for native PD-1 on human PBMC / T cells in the functional (IFN-g) assays; also called CHO cell line overexpressing human PD-1; Cell-Surface Human PD-1 antigen
T2 sequence (Q15116 25-288 limits assumed): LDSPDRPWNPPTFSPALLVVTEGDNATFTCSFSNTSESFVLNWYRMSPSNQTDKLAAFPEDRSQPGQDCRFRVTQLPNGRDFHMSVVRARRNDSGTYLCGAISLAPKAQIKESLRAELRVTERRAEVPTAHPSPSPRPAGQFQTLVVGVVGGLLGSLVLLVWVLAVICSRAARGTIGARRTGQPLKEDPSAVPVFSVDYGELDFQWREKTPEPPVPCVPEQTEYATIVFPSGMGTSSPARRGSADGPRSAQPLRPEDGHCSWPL
Experimental: (§1) CHO-PD1 cells were cultured in RPMI with 10% FCS Pen/Strep and Gln and split every 3-4 days at 10⁵ cells/ml. Cells were washed 2× with FACS buffer (PBS w/2% FCS), […] at a final concentration of 1×10⁶ cells/ml and seeded at […] per well on 96 well polypropylene plates. Plates were spun at 1500 rpm for 5 minutes and cell pellets were suspended in 50 μL FACS buffer containing 8 point 1:3 dilutions (2× concentrated) of anti-PD-1 antibody variants, starting from high concentration of −200 nM. […] Cell were then incubated on ice for 1 hr, washed with FACS buffer and incubated for 1 hr on ice with 50 μl FACS buffer containing 2.5 μg/ml R-phycoerythrin-conjugated anti-human IgG (Jackson ImmunoResearch). Cells were then washed 2× with FACS buffer and fixed for 10 minutes in 200 μl PBS with 2% PFA prior to acquisition. Samples were acquired using a Becton Dickinson LSRII FACS.

[3] = target: T1, Human PD-1 (ACROBiosystems, Inc., …); test: ELISA, binding of human PD-1 (coated)
[4] = target: T2, human PD-1 expressed on the cell …; test: FACS cell binding, CHO cell line overexpressing human PD-1
Experimental: Antibodies with expression levels >250 nM and mouse IgGs from hybridomas were tested in a fluorescence-activated cell sorting (FACS) cell-binding assay. Chinese Hamster Ovary (or CHO) Cells stably expressing the human target molecule PD-1 on the cell surface (CHO-PD1) were used to screen for binding. Parental CHO cells were used as a negative control to determine background-binding levels. Parental CHO cells and CHO-PD1 cells were cultured in RPMI w/10% FCS penicillin/streptomycin (Pen/Strep) and glutamine (or Gln) and split every 3-4 days at 10⁵ cells/mL.
A mix of parental CHO cells and CHO-PD1 cells was prepared as follows: Parental CHO cells were washed 2× in PBS then incubated in PBS containing 1 μM CellTrace™ Oregon Green488® (Life Technologies) at 37° C. for 30 minutes. Cells were then washed 2× with RPMI w/10% fetal calf serum (FCS), washed 2× with FACS buffer (PBS w/2% FCS), suspended thoroughly in ice-cold FACS buffer at a final concentration of 2×10⁶ cells/mL and kept on ice. CHO-PD1 cells were similarly washed with FACS buffer and kept on ice at 2×10⁶ cells/mL. Parental CHO cells and CHO-PD1 cells were then mixed to obtain a 1:1 cell suspension and seeded at 100 μL per well on 96 well polypropylene plates. Plates were spun at 1500 rpm for 5 minutes and cell pellets were suspended in 50 μL FACS buffer containing 6-12 point dilutions of anti-PD-1 variants starting from concentrations of −100-200 nM antibody, dispensed using BioMek FX (Beckman Coulter). Cells were then incubated on ice for 1 hr, washed with FACS buffer and incubated for 1 hr on ice with 50 μL FACS buffer containing 2.5 μg/ml R-phycoerythrin-conjugated goat anti-Human IgG (Jackson ImmunoResearch) or AF647-conjugated goat anti-mouse IgG (Life Technologies) dispensed using BioMek FX (Beckman Coulter). Cells were then washed 2× with FACS buffer and fixed for 10 minutes in 200 μL PBS with 2% paraformaldehyde (PFA) prior to fluorescence detection. Samples were acquired using a Becton Dickinson LSRII FACS. Mean Fluorescence Intensity of PD-1 antibody binding was analyzed using FlowJo® software (Tree Star, Inc.).

[5] = target: T2, human PD-1 expressed on the cell …; test: cell-based FACS competition on CHO-PD1 cells; competitor rhPDL2-Fc
Experimental: as §1

[6] = target: T1, Human PD-1 (ACROBiosystems, Inc., …); test: SPR (Biacore)
[7] = target: T3, cynomolgus PD-1 (ACROBiosystems, Inc., Catalog No. PD1-H5254) (cynomolgus, UniProt B0LAJ3 25-167); test: SPR (Biacore)
T3 construct: also called cyno PD-1
T3 sequence (B0LAJ3 entry or part of it limits assumed, form in doubt): as the sequence (Q15116 25-167 limits assumed) above, with D2E, P10A, V19L, T35A, Q75R counted along it

Binder	IC50 [1] [nM]	IC50 [2] [nM]	EC50 [3] [nM]	Kd [4] [nM]	IC50 [5] [nM]	Kd [6] [nM]	Kd [7] [nM]
B1	1.43	1.99	0.47	1.39	0.01	0.913	0.561
B2	1.32	2.53	0.59	1.34	0.18	0.252	0.195
B3	0.89	5.86	0.33	2.9	0.58	9.9	2.54
B4	9.47	5.96	1.71	3.2	0.56	10.4	2.56
